Laboratory results as given in the domain aggregation screens of Martell et al. (2025).

Experiment: soluble fraction after stress (log2 fold change); higher = more stays soluble; pooled small domains, quantitative proteomics
Settings: stress: pH 4
In short: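 Aggregation propensity is read out as the fold change in how much of each domain remains soluble after acid stress. The custom small-domain libraries were pooled, held at pH 4 and analysed with high-throughput quantitative proteomics. On the log2 scale used, higher values mean more of the domain stayed soluble.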

| Sequence | soluble fraction (log2) |
| --- | --- |
| HMKGDYWIIDLDKNYQYAIISEPDRQYLWILSRSPNMDTQTLETLKEKIRSKGFDLTYLKQTL | -1.24 |
| HMKSPAQAAALKKLWAAIKQNEQGEVVEVLFHNRKLTDAGLVHLKGLANLQTLNLYDTKITGAGLVHL | -0.0712 |
| HMTPEPVTMYITSLTEFRSEPNTEAGIIKLLDAYEEVEMIESRGEWSKISYGDQIGYILSEFLTAENRT | -1.78 |
| HMGHEEPITFDRLPQAAQTFLKTHFDTLTVAYIVADRKFMGVEYEVKYTDRTEVDFRSDGQWESV | -0.443 |
| HMMTDEEFLRIAGYMKQRYGIDLGQKKVIMNGRLENHIKSGGWSSFHAFMNDLEKDSSGKLEKELVNLLTT | -0.367 |
| HMGADPTTWPEIDAFVGRVAVTATGLFPSGQVEIDGRRFEARLAFGVAEPGARVVVRRRTDFGLLVEKETR | -0.531 |
| HMSINTLEVHSLKALENLAESPLLISFSYENEEYNYRLASSDVSLLKKISSNYSDDSDIKGLRFIS | -0.316 |
| HMTKEEREKREKYEKLMKKAEELTAAKNHREVINVLGQAKAYATAAQLKEIEEKIKAATSEMNK | 0.257 |
| HMPIRVGDAFESLAGVFPDEYNKALRKSTKKPVFFVPVKVEAGSGALRQKGKITFIVKDGRIDAIQIAL | -0.514 |
| HMKPDIETQLKKYRYKVSVSKKIKPYMVFSDKTLSELLTKSPTNLKELEDINGFGPVKVQEYGAAILEILK | 0.148 |
| HMENPMIEQLKQFIEAQGLTQGQLAAKLGVSTATVNQYLQGKYKGDTAALDAKAAQLMARSREK | 0.175 |
| HMNPSKEFNMSDLLKAKMVGDVSAAKRREKAGALLHIGYGNAKTFLKKLNHFSISREEWDKVIAAMEEF | 0.0295 |
| HMGIPVSIGQLDFNQARGNLALQVRASDFAALEQLRQRLGQTGESVQLGSASRDGDAVSARVVIGGQ | -0.0672 |
| HMPLLADLPNLLRKVLKQHPGRVVDVDLERGRQGREIYHVRVLQENGQVRGLFVDASTGELVS | 0.0524 |
| HMYKMKDRIKKIMEMQRTTQQDFADQLKIAPATLSSIFTGRTRPTLAIVDAIKSRFPQISTDWLMFGKGDM | 0.22 |
| HMVPVQLTPRELQVARLAAHGASSPEIAAELRVSRRTVDNQLGRVYAKLGIAGRAELAAALSRLPVSV | ≥ 0.43 |
| HMYEDNERNLYSVVINFLNEHKIKISREAINLVINRSSGDKHNLKQELNKILNYSFSNKNITYETIEKLSN | 0.0456 |
| HMDAKIEYTMSDLIENRLINSDDASMRREKLSEILKIGYGNGKKTLHKLNSFGITREEFEEAMKEVNSH | -0.0624 |
| HMGHTKLVVDIVEELKLEQGALLPILHAIQDELGYVPTKSVPFIADSLNLSRAEVHGVISFYHYFR | -0.741 |
| HMNKITIEEAKSIALKHSNLDESQVSFIRSEYDFDNGIEKYEIEFYYNNNKYEYEINAKTGDIISYDYDI | -0.528 |
| HMTLTLEQAAAIKNSEGEQYGKIESERLAAMSVQIDKAIKSNGHDPNKKADLERKLDAIGIILNARAAG | -0.0482 |
| HMGEDPYQMLGLTRQASDEEVRLAWRKLMRENHPDSLASRGVPQEFVKRATEQVAQINAAWDRIKRERG | -0.0212 |
| HMEALQKVSINYYDEGAGKQIAEVPLEVGAGDTEIALAVINKYMPAEYNLVSTDYQIRGGYVYVSVTPA | -0.215 |
| HMINLDYILELIFEKNNKTKDKTALIEEIRGVIRASVGNRAKESLIVDFINDTDLDTITDKASIIESFFEY | -2.64 |
| HMNQIDEATAATITTLNFLNTNSEFKIPVGDTATRPGTPAIGMMRFNSENDKAEIYVADFDGDGNPGWINL | -1.52 |

| Sequence | soluble fraction (log2) |
| --- | --- |
| HMYLNYQTIGKRIRLLRKQQHLTQMTLAEMVDKSPTYISLVENGQKGPSLETLIDVANALKVTMDVLLAEY | -1.58 |
| HMDDTRLELTLLGKIHNDEEINKQSHINVNIKNGVILLTGESPRREITERILTLARTFEHTRQIVNQIAT | -0.515 |
| HMNDRRQDVFELLKSSERPVSAADLAHKFGVTRQVIVADIALLRASDIDIVSTNRGYILKANL | 0.0252 |
| HMQPEKELAPLIGQRVSVRLHDGDGGYRDLLGELESPDSIRKKNGEIAFFDPAKIAALRVVV | 0.326 |
| HMNVLLGISELSHATGVTPAQLRYWVSQGYIKNYGSNKKNKFSLETVFMVRSIKIFQNQGYTLSASAKRAA | -0.285 |
| HMTGIELLSHREHQVYDLLTQGRTVTEIGAQLNLAPNTVSTYRARILEKTGTKNDVELALYAQRH | -0.114 |
| HMQKYEDIINVTRERLQNKFYSQTVIPTDDDIYIWLDKVAILEEIKLSKEDRQMLFNLLKKEAT | -0.879 |
| HMSEYILATNDGEFLRITSYSKEEGGMLVWEKTSSIVSAEHKVIPYSQIINIKDRNGDVVWDKD | -0.0816 |
| HMNVDSIPGKSGIVTQGIDNLKAMGRVTVNGMEWTARSKDGSLIEEGKVVRVYGVEGVKLIVEED | -0.72 |
| HMEKDKGTILKEARIKKGLTQEQLANNINYTRQYISKWENNISLPKDIQTLKKISNLLSIPLKELLPEDYL | 0.0442 |
| HMISDAEWKIMNVLWEEQPRTMMQITKELQEETGWTKHTVMTYLKRMESKKIIHYVEGEKAKLYYS | -0.136 |
| HMLKREDEVIVVAGKDKGKRGTITQLVGDDRVIVAGVNMVKRHTKPNPNLGQPGGIVEREASLHISNV | -0.162 |
| HMGQTYTITINPTPADAKVIIDGVATNSVEAIDGRTLIWSVSKPGYLTKSGNYTVTGKNETLNIVLKEDPD | -0.283 |
| HMYHKKEKAQAANIEERIMILLSDGKHHHITEIKAIYVDEVITLNILEEMLAEEKVIIEGDMIMLVE | -1.47 |
| HMLKHNLLSELSRIEGVGAVKRKALMDKFGTVENIKRASEEELSEVAGIGPTLARTIKEQMNKDE | -0.2 |
| HMDEPVDRLSPREQEVLALMAEGRSNAAIAHRLSITEKAVAKHINSIFTKLDLPLDEDDHRRVRAVLAWLR | -0.464 |
| HMQTYTYYIAKNDISIGQKITPDMLIEKQVNLGDSKDRYLSREQLETGKYIAVRQIPAGELISSASANE | 0.0749 |
| HMSQVLVRINQDLNIRSGPGAQYDIIAVYRSGAIASVIGTYNNWYKVNFELDSKSYTGWINGTFTSR | -0.245 |
| HMDEIELLLQDAIQKLPEKQRMVFTLRYYDNLPYEEISKILDMSVSTLKTNYHYAKSKIEQYILDHS | -0.839 |
| HMQPLRQGDFVTSEVVKVQDGTAVLRTAQGTLLSASLTGNLGLLPGDRVETVVVEASPGRFVLRVLDIIR | -0.266 |
| HMDKNNLHSVLQDVPGIGPKRMKELMRAFGSVEGMKKAGLEELAAVKGMNHKAAEALIQFFR | 0.297 |
| HMDFFTAAPEEDEIGKRIDVYIAEYKEELSRSRVQKLIENGLVTVNGKAVKSNYKLRKGDILEVEIPDPE | -0.00543 |
| HMGHKTLTVELQEKIENLPQTLDKYNLTLGNNKMSVDYTYSVKEKQTGITNLLQDLKEHKFDIVYLVGQDN | -0.613 |
| HMVINKRELNVLSIYSRGSEKRAIILFPTGQTKLVKVGDTLNGGRVAAIGTTEIRYIKGGNNLVLKIPQ | ≥ 0.43 |
| HMSRVKQERLNRFVEAFEAYFRSVHPGEIDVEYLKSDEFGDIFESILHRVMHTASEEKMHRFKKILLNEM | -1.39 |

| Sequence | soluble fraction (log2) |
| --- | --- |
| HMEAVIGGIYRHYKGNNYKLLAVATHSETLEKMAVYQALYGEMGIWVRPLAMFMETIEKDGQSLKRFE | -0.932 |
| HMSPPPRPSHPEAAGLRHLAFEVDNIDDAVRHLDRLGVPHEPVRTDEYTGRRFLFFTDPDRLPLELYEK | -0.572 |
| HMQVTDADFDQIRLAVLSQLKQNSLTVAELLKIIPFKEQKVMPVIRFLIDNRVLEHGTDMKLTVGNSVK | -0.34 |
| HMEVQVGKQVRAFRETLGMTVQQFAERTGFSAALLAQIENRMVSPSLGTLVKIANTFGTTVSSFIG | -0.38 |
| HMKMLKAPIPGTIIEVKVNPGQTVNDGDVAVVLEAMKMESDIHFNSSGKVKKIHVNKGDSVQEGDDLIELE | -0.605 |
| HMGGLAVQLVHAMTDQIRSGRLKAGDKLPTEAAIMKDFGVSRTVVREAISRLQASGWVDTRHGIGTFVLHQ | 0.188 |
| HMLLNTSQLKELYNRYDKKNSSLISIPFSAISDEPLKFYKWYAALFQIELNVKAFADVDSKQIIIYKGTK | -0.175 |
| HMSHGFFTLQSDDLNLLRTVLEGHSSIGDIKIEGIQLVAYLKEPLNGAELNKILFEKGINLSYLVHRK | -1.52 |
| HMTTYVNGSWSGWNGSTVVKLTDGSVWRQAEYHYEYHYAYRPQARLERDELFVEGMSRGVRV | -0.754 |
| HMEDISLYKILRAHSIDNLKLSQWIIDSLKTKFSTIGELQDAKIDDIRMYRIQDVRIEKIKNAVTEYMA | -0.701 |
| HMSWRWVPVSGAYTTSALEAAGLTRAFDDQAAAEEWLGLFFDDLLREGVGEVSLYEEDRLVYGPMSL | -2.33 |
| HMLEQLTPRELKVLQALAQGRQNKEIAAQLVISERTVKFHVSAILSKLNVGNRTEAVTVAAQRGLISL | -0.729 |
| HMETLSKVGSTGSEVRQIQTKLKNWGYFSDKVDGIYGEKTRAAVVWFQKKNGLTADGIAGPATLKAMGIYT | ≥ 0.43 |
| HMTYLIKFDENGRRSDTYVAEEKTQEQVTELLEKGFVLITEEDYQLLVGNVDGKEYIRNADGTYSEYT | -0.894 |
| HMNWQLITDPKELRELVQKTIADNEAGTSRLREGDMGPLEFLTGIIMKKTRGLADPTMVKALLKEELNI | 0.0177 |
| HMTMPDFGYMRVSYAEARRQLQAIGISVSTIEKVEDPSHTSATGDMVISQYPAAGSKIEGTVTLYVSVAS | 0.332 |
| HMRKLDQRLAGLLLGKGRLVKATHQQLADELGSVREMVSRLLKGFAEHDLVRMSREQIEIVDAAGLRKLAD | -0.611 |
| HMYSDQRMEIFLEHLPDFIEQLSHKHVTRQMVWEDYRMIYPDGYGKSQFFFHLAQNLKAQKP | -0.489 |
| HMGQLIVTIPNFERRPAEQAIQKLEELGLVPEEKQIYHDDIPAGSVIYTDPSKDSQVNAGTKVYVYVSLG | -0.0832 |
| HMFKINQKVKLIAPLPYLKTSENMPMLRPPDLVAIDEIGEVLSLKSPETVEVRFRRGSFLIDIDKLEKVD | -0.996 |
| HMENPLVEVVVPVLNEERILKANIETLHHFLRTQPGFNFRITIADNGSTDKTQAIANDLTNSHAVIRV | -0.441 |
| HMKEQLEAYVNRLFADAALTIRNAEVRQEILQHALDRYDDLIASGKTEQEAYDETVSGIGDVSGLYEHK | -0.526 |
| HMPPTEQVYRSHVPPQYDGFPIEKYFTTRFSYQDVEEWSRQILAGKIEVNGKTALIGQILSASDLTVTRA | -0.811 |
| HMAFKEQLKAARLAKGYTQEQLATAIGVAKSTFTGYEKGNSEPNMLTIKKLMEILEVDANYLWY | -1.44 |
| HMPKHFIDFSEGEVVSITDGPFKGFDGAISEIDNQKGKVKVMVSMFGRDTSVELDALQVKKV | -0.364 |
